Measured values published in publication PMC3651167 (PLoS ONE, 2013).

Molecular target: the molecule itself
Assay: SEC

B1: wild-type hamster PrP 121–231 (domain or fragment)
chain: not shown
stoichiometry N: 8
